Reference: the supplement of paper PMC9170038

What was measured:
[1] = test system: K4 kissing-loop RNA reporter; test: apparent KD of K4 kissing-loop reporter; higher = weaker reporter binding; conditions: Eterna round: R107;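 further: bound reporter read as fluorescence of individual clusters on recovered sequencing chips by microscopy, with normalized cluster intensities fitted with a binding model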
Description: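 RNA-MaP round R107: designed RNA switches with theophylline, tryptophan, arginine or FMN aptamers are transcribed on-chip within common flanks. They are titrated with a labelled K4 kissing-loop RNA reporter in RNA-MaP buffer (100 mM Tris pH 7.5, 80 mM KCl, 4 mM MgCl2), without ligand or with the indicated ligand. Median apparent KD per design.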

[2] = test system: MS2 coat protein; test: apparent KD of MS2 coat protein; designed switch direction (-1 OFF switch, 1 ON switch): -1; higher = weaker reporter binding
In short: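 The apparent KD reported per design is the median over clusters of curve fits to normalised cluster fluorescence. The RNA switches were transcribed on Illumina chips by stalled E. coli RNA polymerase. SNAP-549-labelled MS2 coat protein was titrated from 0.7 or 1.5 nM, doubling up to 3 µM, in Tris-HCl pH 7.5 buffer containing KCl, MgCl2, BSA, DTT, tRNA and Tween-20, with no input, 200 uM small-molecule ligand, or an oligonucleotide input.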

[3] = input ligand: theophylline 20 uM
[4] = input ligand: tryptophan 2.4 mM
[5] = input ligand: microRNA oligo, concentration not stated
[6] = Eterna round: R95, input ligand: FMN 200 uM
[7] = Eterna round: R95, input ligand: microRNA oligo, concentration not stated
[8] = Eterna round: R95, input ligand: none

| Sequence | apparent KD of K4 kissing-loop reporter ([1]; input ligand: FMN 200 uM) | apparent KD of K4 kissing-loop reporter ([1]; input ligand: arginine 13.2 mM) | apparent KD of K4 kissing-loop reporter ([1]; input ligand: none) | apparent KD of K4 kissing-loop reporter [1, 3] | apparent KD of K4 kissing-loop reporter [1, 4] | apparent KD of MS2 coat protein ([2]; input ligand: FMN 200 uM) | apparent KD of MS2 coat protein [2, 5] | apparent KD of MS2 coat protein ([2]; input ligand: none) | apparent KD of MS2 coat protein [2, 6] | apparent KD of MS2 coat protein [2, 7] | apparent KD of MS2 coat protein [2, 8] |
| --- | --- | --- | --- | --- | --- | --- | --- | --- | --- | --- | --- |
| AAAACCAAAAGCGAUACCAGCGCGGAGUGAUGUUCCGAGGAUCGGAGUGAUGUUCCGAAGCGCCCUUGGCAGCGCAAAAGCGCAA [Exclusion Theophylline B GF 7] | 207 nM | 139 nM | 171 nM | 196 nM | 164 nM |  |  |  |  |  |  |
| AAAAGAAGAAGUGAUACCAGACAAGCAGUGAUGUUGCGCCAAAGUGAGUGAUGUUCACCAGUCCCUUGGCAGCACAUGCCAAAAG [Same State Theophylline B GF 5] | 520 nM | 927 nM | 668 nM | 839 nM | 933 nM |  |  |  |  |  |  |
| AAAAUAAACCAGUGAUGUUGGUGUCUAGAUACCAGCGAUAAUAAUCGCCCUUGGCAGCUACGGACGUACAAAAUAAGUACGUCCU [MatMod 10 - Jieux - Same State - Theophylline A] | 543 nM | 375 nM | 454 nM | 485 nM | 460 nM |  |  |  |  |  |  |
| AAAAUAAACCAGUGAUGUUGGUGUGUAGAUACCAGCGACGAAAGUCGCCCUUGGCAGCUGUGGACGUACAAAAUAAGUACGUCCU [MatMod 23 - Jieux - Same State - Theophylline A] | 315 nM | 310 nM | 350 nM | 325 nM | 280 nM |  |  |  |  |  |  |
| AAAAUAAAGGAGUGAUGUUCCAUAUGUGAUACCAGCCACGAAAGUGGCCCUUGGCAGCACUGCCAAGUGGACGAAAACGUCCACA [#OpenEnded 5 #StaticStem #K4Early] | 125 nM | 162 nM | 141 nM | 160 nM | 113 nM |  |  |  |  |  |  |
| AAAAUAAAUAGCAGUCACGGAGUGAUGUUCCGAGGACCGGUACGGCCGCCACUCGACCAGACAAAGUCUGGAUGGCGAGACUGCA [#SwitchBubble 19 #K4Early] | 200 nM | 290 nM | 342 nM | 392 nM | 340 nM |  |  |  |  |  |  |
| AAAAUAAAUAGCAGUCACGGAGUGAUGUUCCGAGGACCGGUACGGCCGCCACUCGACCAUCAUAAGAUGGAAUGGCGAGACUGCA [#SwitchBubble 21 #K4Early] | 134 nM | 135 nM | 137 nM | 138 nM | 354 nM |  |  |  |  |  |  |
| AAAAUAAUCCAGUGAUGUUGGUAUCCAGAUACCAGCCACGAAAGUGGCCCUUGGCAGCUGUGGACGUACAAAAUAAGUACGUCCU [#OpenEnded 8 #StaticStem #K4Early] | 534 nM | 293 nM | 729 nM | 790 nM | 651 nM |  |  |  |  |  |  |
| AAACAACGUGACGAUACCAGCUUACUCGGCAAGCCAGUGAUGUUGGUGAAAAGGAGUCAAAGCCCUUGGCAGCGUCGAAGGUUUG [Leteon] | 310 nM | 268 nM | 334 nM | 138 nM | 268 nM |  |  |  |  |  |  |
| AAACAGCACUGGGAGUGAUGUUCUCAGUGACGAGGACCGGUACGGCCGCCACUCGCGAGAGAACUAGUCUAGACUUGACUGCAUA [Excl Tryptophan A V15] | 181 nM | 138 nM | 145 nM | 149 nM | 205 nM |  |  |  |  |  |  |
| AAACAUAAGUCUGAUACCAGCCUGGGAGAAGUGAUGUUUCUCGGUGCAUAACGCCUAUAAGGCCCUUGGCAGCAGCAUGCGCUUC [theeternabot_sameState_KL_Theo_B_10] | 547 nM | 485 nM | 569 nM | 471 nM | 516 nM |  |  |  |  |  |  |
| AAACAUCACUGGGAGUGAUGUUCUCAGUGACGAGGACCGGUACGGCCGCCACUCGCGAGAGAUAUAAUUAAGUAAUGACAUCAUU [Excl Tryptophan A V6] | 260 nM | 267 nM | 274 nM | 341 nM | 327 nM |  |  |  |  |  |  |
| AAACAUUGGUCGGAUACCAGUUAGACCGAUAAGGUCAAAACUGGAGUGAUGUUCCCAAAUAACCCUUGGCAGCCGACCGAUGAAA [MAT - Same State Theophlline B - Mod of Eli - D11] | 193 nM | 121 nM | 167 nM | 205 nM | 221 nM |  |  |  |  |  |  |
| AAAGAAGUAUACUUCAAGAGGUAUGCUGAUACCAGAGUCAAUUGACUCCCUUGGCAGCGGAUCGAGUGAUGUUCGUAACCUCAAA [AK3 SS Theophylline A] | 118 nM | 178 nM | 153 nM | 192 nM | 117 nM |  |  |  |  |  |  |
| AAAGACUGACUGCAAUUAGCAGUCAGUCAACGAGGACCGGUACGGCCGCCACUCGGGUCCUAGAGUGAUGUUCUAAUAAUAUAAU [Default title] | 279 nM | 367 nM | 432 nM | 466 nM | 167 nM |  |  |  |  |  |  |
| AAAUAAAGCAGUCAGCCAGUGAUGUUGGAAGGAGCGUGCGAAAGCACAGGUAGGUCGCCAAAACCUAAUACUGGCUGCUAAAUAA [#SwitchBubble 1 #K4Early] | 979 nM | 643 nM | 773 nM | 753 nM | 542 nM |  |  |  |  |  |  |
| AAAUAACAGGCAGGAUAUGCUUAGUAAUAAGGCCAUAUAUACGUAUAGAGUGAUGUUUUGUACAAAGCAGAAGGGCUAAAUCCAU [FMN B Excl V1] | 154 nM | 151 nM | 160 nM | 105 nM | 167 nM |  |  |  |  |  |  |
| AAAUCGUUCAGAAGGAGCGUGGAUUAUUCUUAAAUAUUUAUUACGAGUGAUGUUCGUAAUUCACAGGUAGGUCGCUGAUCGAUAA [JR_ExcArginiB_Sub003] | 102 nM | 137 nM | 106 nM | 121 nM | 105 nM |  |  |  |  |  |  |
| AAAUUCUUUUUUUUAUAUAACGAUUCAGAAGGAGCGAGGUAGAACUCAGGUAGGUCGCUGAAUAUAAGACUAGUGAUGUUAGUAA [#01 K4 Arginine A Same State] | 175 nM | 193 nM | 224 nM | 238 nM | 156 nM |  |  |  |  |  |  |
| AAAUUGUUUAGAGGAUAUUCUUUAUUCGACAUAACCUUCUAUAAGGUGCAGUGAUGUUGCAAUAUAGGAGAAGGCUGAGCGAUAA [Exclusion FMN B Gf 14] | 311 nM | 177 nM | 217 nM | 196 nM | 178 nM |  |  |  |  |  |  |
| AACACUCUGGGAGUGAUGUUCUCAAAUAACCGAGGACCGGUACGGCCGCCACUCGGAAAAGAGUGAGUCCUACGAAAAGUAGGAC [Omei inspired 3] | 225 nM | 258 nM | 235 nM | 264 nM | 152 nM |  |  |  |  |  |  |
| AACGCUCAAUAGAGAGUGAUGUUCUCUAUACGAGGACCGGUACGGCCGCCACUCGAAUGUAUAGCGAAACGCUAUACACAGUGGU [Tryp A SS t2] | 155 nM | 147 nM | 152 nM | 146 nM | 150 nM |  |  |  |  |  |  |
| AACGCUGCCUGAGGAUAUAGAAACGAGUGAUGUUCGUGGAACGAGACCAGUGAUGUUGGCCUAUUUCUAGAAGGCAGGCAACCGC [Exclusion FMN B GF 1] | 155 nM | 121 nM | 148 nM | 123 nM | 125 nM |  |  |  |  |  |  |
| UUUUUAUAUGAAGGAUAUACUUAACAUGAGGAUCACCCAUGUGGUGUUGUGAGUGAGUGAGUUUAGUAGAAGGUCAAAUAUUUU [JMF's solution 7] (Eterna round: R96, puzzle: Exclusion NG 2) |  |  |  |  |  | 583 nM | 194 nM | 270 nM |  |  |  |
| UUUUUCGAACAAGCAUCGAACAUGAGGAUCACCCAUGUAGGUAGAUUUGAGUAGGUAUGGAAGUAAGCUCGUCUUAU [JR_SV3TOV1_Sub080] (puzzle: Sensor v3, turn-off variant 1) |  |  |  |  |  |  |  |  | 39.4 nM | 107 nM | 53.9 nM |
| UUUUUCGAACAAGCUACGUACAUGAGGAUCACCCAUGUCGGUAGAUUUGAGUAGGUUUGGAUGGAAGCUCGUCUUAU [JR_SV3TOV1_Sub085] (puzzle: Sensor v3, turn-off variant 1) |  |  |  |  |  |  |  |  | 19.4 nM | 28.2 nM | 19.5 nM |
| UUUUUGUGAGGAUAUGCAAUAUCUUCUAUUUAUUAUUAAUUGCAGAAGGCACAUGAGGAUCACCCAUGUAUUUU [Ex4 - 3 - 36] (puzzle: Exclusion 4) |  |  |  |  |  |  |  |  |  | 20.5 nM |  |
| UUUUUUGGGCAAGGAUAUCCUGUGCGGUUCCGGCUCGUGUCUGUCACAUGAGGAUCACCCAUGUGGGAGAAGGUGCCUGCGGUU [Design 84] (Eterna round: R96, puzzle: Exclusion NG 2) |  |  |  |  |  | 15.1 nM | 10.8 nM | 15.4 nM |  |  |  |
| UUUUUUGGGCAAGGAUAUCCUGUGCGGUUCCGGCUCGUGUCUGUUACAUGAGGAUCACCCAUGUGGGAGAAGGUGCCUGCGGUU [Design 85] (Eterna round: R96, puzzle: Exclusion NG 2) |  |  |  |  |  | 172 nM | 31.1 nM | 34.9 nM |  |  |  |
